The results in this text go back to US20150140169.

For the data set, the target named is T1, alpha-s1 casein from Bos taurus.
T1 chain: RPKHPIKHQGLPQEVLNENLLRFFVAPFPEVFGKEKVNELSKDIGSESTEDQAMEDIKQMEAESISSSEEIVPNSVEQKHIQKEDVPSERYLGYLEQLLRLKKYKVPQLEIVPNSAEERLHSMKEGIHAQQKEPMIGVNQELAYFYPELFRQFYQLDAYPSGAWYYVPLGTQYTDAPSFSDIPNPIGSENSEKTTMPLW

B1: bovine chymosin B variant #7 (K221V) (protein)
chain: GEVASVPLTNYLDSQYFGKIYLGTPPQEFTVLFDTGSSDFWVPSIYCKSNACKNHQRFDPRKSSTFQNLGKPLSIHYGTGSMQGILGYDTVTVSNIVDIQQTVGLSTQEPGDVFTYAEFDGILGMAYPSLASEYSIPVFDNMMNRHLVAQDLFSVYMDRNGQESMLTLGAIDPSYYTGSLHWVPVTVQQYWQFTVDSVTISGVVVACEGGCQAILDTGTSVLVGPSSDILNIQQAIGATQNQYGEFDIDCDNLSYMPTVVFEINGKMYPLTPSAYTSQDQGFCTSGFQSENHSQKWILGDVFIREYYSVFDRANNLVGLAKAI
As for B1, the “hydrolysis of the first cut in alpha-s1-casein” value (“hydrolysis … in alpha-s1-casein” for short) is recorded as “show a clear hydrolysis of the first cut in alpha-s1-casein, leading to a rapid formation of fragment alpha-s1-I casein”; the small, 6 hours, 11° C. came out at 0 Volume; the small, 24 hours, 11° C. was 1.05e+07 Volume; the αs1-I CN, 6 hours, 11° C. was found to be 2.28e+07 Volume. Besides, the αs1-I CN, 24 hours, 11° C. amounted to 1.82e+07 Volume; the αs1-I CN/αs1 CN, 6 hours, 11° C. stood at 2.1; the αs1-I CN/αs1 CN, 24 hours, 11° C. was determined as 6.4; the αs1 CN, 6 hours, 11° C. is 1.07e+07 Volume. This protein returned a αs1 CN, 24 hours, 11° C. of 2.8e+06 Volume.

B2: bovine chymosin B variant #98 (A51V, K221V, S135T, A126G, S273Y, Q240E) (protein)
chain: GEVASVPLTNYLDSQYFGKIYLGTPPQEFTVLFDTGSSDFWVPSIYCKSNVCKNHQRFDPRKSSTFQNLGKPLSIHYGTGSMQGILGYDTVTVSNIVDIQQTVGLSTQEPGDVFTYAEFDGILGMGYPSLASEYTIPVFDNMMNRHLVAQDLFSVYMDRNGQESMLTLGAIDPSYYTGSLHWVPVTVQQYWQFTVDSVTISGVVVACEGGCQAILDTGTSVLVGPSSDILNIQQAIGATENQYGEFDIDCDNLSYMPTVVFEINGKMYPLTPYAYTSQDQGFCTSGFQSENHSQKWILGDVFIREYYSVFDRANNLVGLAKAI
Regarding B2, the “hydrolysis … in alpha-s1-casein” value is given as “show a clear hydrolysis of the first cut in alpha-s1-casein, leading to a rapid formation of fragment alpha-s1-I casein”; the small, 16 hours, 30° C. is 1.4e+06 Volume; the αs1-I CN, 16 hours, 30° C. was determined as 1.96e+07 Volume; the αs1 CN, 16 hours, 30° C. was found to be 1.5e+06 Volume.

B3: bovine chymosin B variant #74 (A51V, K221M) (protein)
chain: GEVASVPLTNYLDSQYFGKIYLGTPPQEFTVLFDTGSSDFWVPSIYCKSNVCKNHQRFDPRKSSTFQNLGKPLSIHYGTGSMQGILGYDTVTVSNIVDIQQTVGLSTQEPGDVFTYAEFDGILGMAYPSLASEYSIPVFDNMMNRHLVAQDLFSVYMDRNGQESMLTLGAIDPSYYTGSLHWVPVTVQQYWQFTVDSVTISGVVVACEGGCQAILDTGTSMLVGPSSDILNIQQAIGATQNQYGEFDIDCDNLSYMPTVVFEINGKMYPLTPSAYTSQDQGFCTSGFQSENHSQKWILGDVFIREYYSVFDRANNLVGLAKAI
For B3, the “hydrolysis … in alpha-s1-casein” value is on record as “show a clear hydrolysis of the first cut in alpha-s1-casein, leading to a rapid formation of fragment alpha-s1-I casein”; the small, 6 hours, 11° C. is 0 Volume; the small, 16 hours, 30° C. turned out to be 5.1e+06 Volume; the small, 24 hours, 11° C. came out at 0 Volume. For the same protein, the αs1-I CN, 6 hours, 11° C. came to 1.98e+07 Volume; the αs1-I CN, 16 hours, 30° C. was 1.86e+07 Volume; the αs1-I CN, 24 hours, 11° C. came to 2.47e+07 Volume; the αs1-I CN/αs1 CN, 6 hours, 11° C. worked out at 0.9. This protein showed a αs1-I CN/αs1 CN, 24 hours, 11° C. of 3.9; a αs1 CN, 6 hours, 11° C. of 2.09e+07 Volume; a αs1 CN, 16 hours, 30° C. of 1.8e+06 Volume; a αs1 CN, 24 hours, 11° C. of 6.3e+06 Volume.

B4: bovine chymosin B variant #62 (V223Q) (protein)
chain: GEVASVPLTNYLDSQYFGKIYLGTPPQEFTVLFDTGSSDFWVPSIYCKSNACKNHQRFDPRKSSTFQNLGKPLSIHYGTGSMQGILGYDTVTVSNIVDIQQTVGLSTQEPGDVFTYAEFDGILGMAYPSLASEYSIPVFDNMMNRHLVAQDLFSVYMDRNGQESMLTLGAIDPSYYTGSLHWVPVTVQQYWQFTVDSVTISGVVVACEGGCQAILDTGTSKLQGPSSDILNIQQAIGATQNQYGEFDIDCDNLSYMPTVVFEINGKMYPLTPSAYTSQDQGFCTSGFQSENHSQKWILGDVFIREYYSVFDRANNLVGLAKAI
As to B4, the “hydrolysis of the first cut in alpha s1-casein” value is “variant 62 shows slow hydrolysis of the first cut in alpha s1-casein, and therefore slow accumulation of alpha s1-I casein”; the small, 6 hours, 11° C. was 0 Volume; the small, 24 hours, 11° C. was found to be 4.1e+06 Volume; the αs1-I CN, 6 hours, 11° C. was 1.29e+07 Volume. In addition, the αs1-I CN, 24 hours, 11° C. was found to be 1.99e+07 Volume; the αs1 CN, 6 hours, 11° C. came to 2.67e+07 Volume; the αs1 CN, 24 hours, 11° C. was determined as 1.34e+07 Volume.

B5: bovine chymosin B variant #110 (A51V, K221V, N50D, N144H, N160D, S201D, Q242E, M267E, Q280E) (protein)
chain: GEVASVPLTNYLDSQYFGKIYLGTPPQEFTVLFDTGSSDFWVPSIYCKSDVCKNHQRFDPRKSSTFQNLGKPLSIHYGTGSMQGILGYDTVTVSNIVDIQQTVGLSTQEPGDVFTYAEFDGILGMAYPSLASEYSIPVFDNMMHRHLVAQDLFSVYMDRDGQESMLTLGAIDPSYYTGSLHWVPVTVQQYWQFTVDSVTIDGVVVACEGGCQAILDTGTSVLVGPSSDILNIQQAIGATQNEYGEFDIDCDNLSYMPTVVFEINGKEYPLTPSAYTSQDEGFCTSGFQSENHSQKWILGDVFIREYYSVFDRANNLVGLAKAI
Consider B5, for which the “hydrolysis … in alpha-s1-casein” value was “show a clear hydrolysis of the first cut in alpha-s1-casein, leading to a rapid formation of fragment alpha-s1-I casein”; the small, 16 hours, 30° C. was 1.4e+06 Volume; the αs1-I CN, 16 hours, 30° C. amounted to 2.26e+07 Volume; the αs1 CN, 16 hours, 30° C. was determined as 3e+06 Volume.

B6: bovine chymosin B variant #71 (A51V, K221V) (protein)
chain: GEVASVPLTNYLDSQYFGKIYLGTPPQEFTVLFDTGSSDFWVPSIYCKSNVCKNHQRFDPRKSSTFQNLGKPLSIHYGTGSMQGILGYDTVTVSNIVDIQQTVGLSTQEPGDVFTYAEFDGILGMAYPSLASEYSIPVFDNMMNRHLVAQDLFSVYMDRNGQESMLTLGAIDPSYYTGSLHWVPVTVQQYWQFTVDSVTISGVVVACEGGCQAILDTGTSVLVGPSSDILNIQQAIGATQNQYGEFDIDCDNLSYMPTVVFEINGKMYPLTPSAYTSQDQGFCTSGFQSENHSQKWILGDVFIREYYSVFDRANNLVGLAKAI
In the case of B6, the “hydrolysis … in alpha-s1-casein” value is recorded as “show a clear hydrolysis of the first cut in alpha-s1-casein, leading to a rapid formation of fragment alpha-s1-I casein”; the small, 6 hours, 11° C. is 0 Volume; the small, 16 hours, 30° C. was determined as 2.4e+06 Volume; the small, 24 hours, 11° C. was 0 Volume. For the same protein, the αs1-I CN, 6 hours, 11° C. was determined as 2.54e+07 Volume; the αs1-I CN, 16 hours, 30° C. amounted to 1.97e+07 Volume; the αs1-I CN, 24 hours, 11° C. turned out to be 2.46e+07 Volume; the αs1-I CN/αs1 CN, 6 hours, 11° C. was determined as 2.9. The αs1-I CN/αs1 CN, 24 hours, 11° C. amounted to 9.8; the αs1 CN, 6 hours, 11° C. was 8.8e+06 Volume; the αs1 CN, 16 hours, 30° C. worked out at 1.6e+06 Volume; the αs1 CN, 24 hours, 11° C. was 2.5e+06 Volume.

B7: bovine chymosin B variant #103 (A51I, K221T) (protein)
chain: GEVASVPLTNYLDSQYFGKIYLGTPPQEFTVLFDTGSSDFWVPSIYCKSNICKNHQRFDPRKSSTFQNLGKPLSIHYGTGSMQGILGYDTVTVSNIVDIQQTVGLSTQEPGDVFTYAEFDGILGMAYPSLASEYSIPVFDNMMNRHLVAQDLFSVYMDRNGQESMLTLGAIDPSYYTGSLHWVPVTVQQYWQFTVDSVTISGVVVACEGGCQAILDTGTSTLVGPSSDILNIQQAIGATQNQYGEFDIDCDNLSYMPTVVFEINGKMYPLTPSAYTSQDQGFCTSGFQSENHSQKWILGDVFIREYYSVFDRANNLVGLAKAI
B7: the “hydrolysis … in alpha-s1-casein” value was “show a clear hydrolysis of the first cut in alpha-s1-casein, leading to a rapid formation of fragment alpha-s1-I casein”; the small, 16 hours, 30° C. was determined as 1.3e+06 Volume; the αs1-I CN, 16 hours, 30° C. amounted to 2.03e+07 Volume; the αs1 CN, 16 hours, 30° C. worked out at 1.4e+06 Volume.
